The target in experiment [1] is Bombyx mori aminopeptidase N, native, 115-kDa (115-120 kDa) Cry1Aa-binding receptor (Bombyx mori (endogenous in larval midgut)). Nature of the experiment: SPR. A general note: Surface plasmon resonance follows binding to a sensor surface in real time, without labels.
Experiment [2] has as its target Bombyx mori cadherin-like receptor BtR175, native, 175 kDa (Bombyx mori (endogenous in larval midgut)). Nature of the experiment: SPR.

One may read the Kd as a measure of binding affinity in units of concentration. Low readings indicate tighter binding, high ones weaker binding. By koff is commonly meant the first-order rate constant of dissociation. Low values mean a long-lived complex, high ones a short-lived complex. As usually defined, the kon is the second-order rate constant of association. A low value points to slower complex formation.

In experiment [1], “Hybrid toxin 4109 (domains I and II of Cry1Aa, domain III of Cry1Ac)” had an equilibrium dissociation constant (Kd) of 78 nM, a koff of 0.0015 s⁻¹ and a kon of 19000 M⁻¹ s⁻¹. In experiment [2], this substance returned an equilibrium dissociation constant (Kd) of 2.6 nM, a koff of 3.34e-05 s⁻¹ and a kon of 13000 M⁻¹ s⁻¹.

For the origin of these results see paper PMC60004.
